From patent US20260071002A1 (Hoffmann-La Roche, published 2026)

T1: human CEACAM5 (human, UniProt P06731 35-685)
T1 construct: whole, on cells; Target on MKN-45 (DSMZ ACC409) and LS180 (ATCC CL-187) cells; also called carcinoembryonic antigen-related cell adhesion molecule 5; CD66e
T1 sequence (looked up): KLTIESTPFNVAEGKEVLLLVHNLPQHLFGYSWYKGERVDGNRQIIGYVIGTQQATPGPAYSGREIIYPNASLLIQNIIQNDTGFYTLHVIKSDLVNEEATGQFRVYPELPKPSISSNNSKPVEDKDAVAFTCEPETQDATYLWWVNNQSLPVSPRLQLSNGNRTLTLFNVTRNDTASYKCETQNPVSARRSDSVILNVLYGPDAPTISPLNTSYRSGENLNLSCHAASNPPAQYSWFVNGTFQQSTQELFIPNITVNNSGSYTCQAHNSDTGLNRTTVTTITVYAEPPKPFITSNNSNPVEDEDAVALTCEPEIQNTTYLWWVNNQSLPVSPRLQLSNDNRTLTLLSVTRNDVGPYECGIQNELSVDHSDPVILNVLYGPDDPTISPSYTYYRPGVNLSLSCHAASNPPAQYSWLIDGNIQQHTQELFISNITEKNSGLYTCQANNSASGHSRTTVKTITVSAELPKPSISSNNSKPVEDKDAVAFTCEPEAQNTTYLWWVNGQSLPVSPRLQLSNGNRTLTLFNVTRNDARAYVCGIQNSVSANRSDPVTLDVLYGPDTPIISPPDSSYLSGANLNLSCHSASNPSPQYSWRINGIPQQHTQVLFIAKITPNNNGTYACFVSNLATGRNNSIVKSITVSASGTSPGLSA

B1: P1AH2350 (antibody, name in Kabat numbering, V domains shown)
VH: QVQLVQSGAEVKKPGSSVKVSCKASGFNIKDTYMHWVRQAPGQGLEWMGRIDPANGNSKYVPKFQGRVTITADTSTSTAYMELSSLRSEDTAVYYCAVFGYYVSDYAMAYWGQGTLVTVSS
VL: EIVLTQSPATLSLSPGERATLSCRAGESVDIFGVGFLHWYQQKPGQAPRLLIYRASNRATGIPARFSGSGSGTDFTLTISSLEPEDFAVYYCQQTNEDPYTFGQGTKLEIK
B2: P1AH2352 (antibody, human IgG1, name in Kabat numbering, V domains shown)
VH: QVQLVQSGAEVKKPGSSVKVSCKASGFNIKDTYMHWVRQAPGQGLEWMGRIDPANGNSKYVPKFQGRVTITADTSTSTAYMELSSLRSEDTAVYYCATFGYYVSDYAMAYWGQGTLVTVSS
VL: EIVLTQSPATLSLSPGERATLSCRAGESVDIFGVGFLHWYQQKPGQAPRLLIYRASNRATGIPARFSGSGSGTDFTLTISSLEPEDFAVYYCQQTNEDPYTFGQGTKLEIK
notes: Kabat positions
B3: P1AH2351 (antibody, human IgG1, name in Kabat numbering, V domains shown)
VH: QVQLVQSGAEVKKPGSSVKVSCKASGFNIKDTYMHWVRQAPGQGLEWMGRIDPANGNSKYVPKFQGRVTITADTSTSTAYMELSSLRSEDTAVYYCAAFGYYVSDYAMAYWGQGTLVTVSS
VL: EIVLTQSPATLSLSPGERATLSCRAGESVDIFGVGFLHWYQQKPGQAPRLLIYRASNRATGIPARFSGSGSGTDFTLTISSLEPEDFAVYYCQQTNEDPYTFGQGTKLEIK
notes: Kabat positions
B4: P1AH2357 (antibody, name in Kabat numbering, V domains shown)
VH: QVQLVQSGAEVKKPGSSVKVSCKASGFNIKSTYMHWVRQAPGQGLEWMGRIDPANGNSKYVPKFQGRVTITADTSTSTAYMELSSLRSEDTAVYYCAPFGYYVSDYAMAYWGQGTLVTVSS
VL: EIVLTQSPATLSLSPGERATLSCRAGESVDIFGVGFLHWYQQKPGQAPRLLIYRASNRATGIPARFSGSGSGTDFTLTISSLEPEDFAVYYCQQTNEDPYTFGQGTKLEIK
B5: P1AH2354 (antibody, human IgG1, name in Kabat numbering, V domains shown)
VH: QVQLVQSGAEVKKPGSSVKVSCKASGFNIKDTYMHWVRQAPGQGLEWMGRIDPANGNSKYVPKFQGRVTITADTSTSTAYMELSSLRSEDTAVYYCASFGYYVSDYAMAYWGQGTLVTVSS
VL: EIVLTQSPATLSLSPGERATLSCRAGESVDIFGVGFLHWYQQKPGQAPRLLIYRASNRATGIPARFSGSGSGTDFTLTISSLEPEDFAVYYCQQTNEDPYTFGQGTKLEIK
notes: Kabat positions
B6: P1AI5029 (antibody, human IgG1, name in Kabat numbering, V domains shown)
VH: EVQLVESGGGLVQPGGSLRLSCAASGFNIKDTYMHWVRQAPGKGLEWVGRIDPANGNSKYADSVKGRFTISADTSKNTAYLQMNSLRAEDTAVYYCAPFGYYVSDYAMAYWGQGTTVTVSS
VL: EIVLTQSPATLSLSPGERATLSCRAGESVDIFGVGFLHWYQQKPGQAPRLLIYRGSNRATGIPARFSGSGSGTDFTLTISSLEPEDFAVYYCGQTKEDPYTFGQGTKLEIK
B7: P1AI5028 (antibody, human IgG1, name in Kabat numbering, V domains shown)
VH: EVQLVESGGGLVQPGGSLRLSCAASGFNIKDTYMHWVRQAPGKGLEWVGRIDPANGNSKYADSVKGRFTISADTSKNTAYLQMNSLRAEDTAVYYCAPFGYYVSDYAMAYWGQGTTVTVSS
VL: EIVLTQSPATLSLSPGERATLSCRAGESVDIFGVGFLHWYQQKPGQAPRLLIYRGSNRATGIPARFSGSGSGTDFTLTISSLEPEDFAVYYCGQTHEDPYTFGQGTKLEIK
B8: P1AI5013 (antibody, human IgG1, V domains shown)
VH: EVQLVESGGGLVQPGGSLRLSCAASGFNIKDTYMHWVRQAPGKGLEWVGRIDPANGNSKYADSVKGRFTISADTSKNTAYLQMNSLRAEDTAVYYCAPFGYYVSDYAMAYWGQGTTVTVSS
VL: EIVLTQSPATLSLSPGERATLSCRAGESVDHFGVGFLHWYQQKPGQAPRLLIYRASNRATGIPARFSGSGSGTDFTLTISSLEPEDFAVYYCQQTNEDPYTFGQGTKLEIK
B9: P1AI5021 (antibody, human IgG1, name in Kabat numbering, V domains shown)
VH: EVQLVESGGGLVQPGGSLRLSCAASGFNIKDTYMHWVRQAPGKGLEWVGRIDPANGNSKYADSVKGRFTISADTSKNTAYLQMNSLRAEDTAVYYCAPFGYYVSDYAMAYWGQGTTVTVSS
VL: EIVLTQSPATLSLSPGERATLSCRAGESVDIFGVGFLHWYQQKPGQAPRLLIYRGSNRATGIPARFSGSGSGTDFTLTISSLEPEDFAVYYCGQTNEPPYTFGQGTKLEIK
B10: P1AI5032 (antibody, human IgG1, name in Kabat numbering, V domains shown)
VH: EVQLVESGGGLVQPGGSLRLSCAASGFNIKDTYMHWVRQAPGKGLEWVGRIDPANGNSKYADSVKGRFTISADTSKNTAYLQMNSLRAEDTAVYYCAPFGYYVSDYAMAYWGQGTTVTVSS
VL: EIVLTQSPATLSLSPGERATLSCRAGESVDHFGVGFLHWYQQKPGQAPRLLIYRGSNRATGIPARFSGSGSGTDFTLTISSLEPEDFAVYYCQQTNEDPYTFGQGTKLEIK
notes: Double mutant of T84.66-LCHA VL
B11: P1AI5026 (antibody, human IgG1, name in Kabat numbering, V domains shown)
VH: EVQLVESGGGLVQPGGSLRLSCAASGFNIKDTYMHWVRQAPGKGLEWVGRIDPANGNSKYADSVKGRFTISADTSKNTAYLQMNSLRAEDTAVYYCAPFGYYVSDYAMAYWGQGTTVTVSS
VL: EIVLTQSPATLSLSPGERATLSCRAGESVDIFGVGFLHWYQQKPGQAPRLLIYRGSNRATGIPARFSGSGSGTDFTLTISSLEPEDFAVYYCGQTTEDPYTFGQGTKLEIK
B12: P1AI5023 (antibody, human IgG1, name in Kabat numbering, V domains shown)
VH: EVQLVESGGGLVQPGGSLRLSCAASGFNIKDTYMHWVRQAPGKGLEWVGRIDPANGNSKYADSVKGRFTISADTSKNTAYLQMNSLRAEDTAVYYCAPFGYYVSDYAMAYWGQGTTVTVSS
VL: EIVLTQSPATLSLSPGERATLSCRAGESVDIFGVGFLHWYQQKPGQAPRLLIYRGSNRATGIPARFSGSGSGTDFTLTISSLEPEDFAVYYCGQTNEHPYTFGQGTKLEIK
B13: P1AI5019 (antibody, human IgG1, name in Kabat numbering, V domains shown)
VH: EVQLVESGGGLVQPGGSLRLSCAASGFNIKDTYMHWVRQAPGKGLEWVGRIDPANGNSKYADSVKGRFTISADTSKNTAYLQMNSLRAEDTAVYYCAPFGYYVSDYAMAYWGQGTTVTVSS
VL: EIVLTQSPATLSLSPGERATLSCRAGESVDIFGVGFLHWYQQKPGQAPRLLIYRGSNRATGIPARFSGSGSGTDFTLTISSLEPEDFAVYYCGQTNEDYYTFGQGTKLEIK
B14: P1AI5025 (antibody, human IgG1, name in Kabat numbering, V domains shown)
VH: EVQLVESGGGLVQPGGSLRLSCAASGFNIKDTYMHWVRQAPGKGLEWVGRIDPANGNSKYADSVKGRFTISADTSKNTAYLQMNSLRAEDTAVYYCAPFGYYVSDYAMAYWGQGTTVTVSS
VL: EIVLTQSPATLSLSPGERATLSCRAGESVDIFGVGFLHWYQQKPGQAPRLLIYRGSNRATGIPARFSGSGSGTDFTLTISSLEPEDFAVYYCGQTSEDPYTFGQGTKLEIK
B15: P1AI5027 (antibody, human IgG1, name in Kabat numbering, V domains shown)
VH: EVQLVESGGGLVQPGGSLRLSCAASGFNIKDTYMHWVRQAPGKGLEWVGRIDPANGNSKYADSVKGRFTISADTSKNTAYLQMNSLRAEDTAVYYCAPFGYYVSDYAMAYWGQGTTVTVSS
VL: EIVLTQSPATLSLSPGERATLSCRAGESVDIFGVGFLHWYQQKPGQAPRLLIYRGSNRATGIPARFSGSGSGTDFTLTISSLEPEDFAVYYCGQTQEDPYTFGQGTKLEIK
B16: P1AI5030 (antibody, human IgG1, name in Kabat numbering, V domains shown)
VH: EVQLVESGGGLVQPGGSLRLSCAASGFNIKDTYMHWVRQAPGKGLEWVGRIDPANGNSKYADSVKGRFTISADTSKNTAYLQMNSLRAEDTAVYYCAPFGYYVSDYAMAYWGQGTTVTVSS
VL: EIVLTQSPATLSLSPGERATLSCRAGESVDIFGVGFLHWYQQKPGQAPRLLIYRGSNRATGIPARFSGSGSGTDFTLTISSLEPEDFAYYYCGQTNEDPYTFGQGTKLEIK
B17: P1AI5024 (antibody, human IgG1, name in Kabat numbering, V domains shown)
VH: EVQLVESGGGLVQPGGSLRLSCAASGFNIKDTYMHWVRQAPGKGLEWVGRIDPANGNSKYADSVKGRFTISADTSKNTAYLQMNSLRAEDTAVYYCAPFGYYVSDYAMAYWGQGTTVTVSS
VL: EIVLTQSPATLSLSPGERATLSCRAGESVDIFGVGFLHWYQQKPGQAPRLLIYRGSNRATGIPARFSGSGSGTDFTLTISSLEPEDFAVYYCGQTYEDPYTFGQGTKLEIK

Each binder was assayed against T1, human CEACAM5 (assay: FACS on MKN-45 cells expressing human CEACAM5).
Procedure: The cellular binding assay was performed as follows.
(§1) 10 μl of a 1×10⁴ MKN-45 (DSMZ ACC409) cell suspension in assay buffer was seeded in all Wells of a 384 well polypropylene plate (Weidmann #23490-101). Then 10 μl of antibodies diluted in assay buffer (double concentrated), at a start concentration of 100 μg/ml, serially diluted 1:4 were added to the plate. After 90 minutes incubation at 4° C., 60 μl assay buffer was added followed by a centrifuge step (330×g, 5 min) and an aspirating step (BioTek washer 405H) where 60 μl of supernatant were discarded. 20 μl of detection antibody (Alpaca anti rabbit IgG Chromotek #srbAF647-1) diluted in assay buffer (double concentrated) to a final concentration of 0.5 μg/ml was added to all Wells followed by 1 hour incubation time at room temperature. The cells were then subjected to two washing steps with 40 μl and 60 μl assay buffer as described above and then resuspended in 20 μl assay buffer. Cell binding was measured on an iQue Screener Plus high throughput FACS device from Sartorius/Intellicyt.
For B1, the EC50 was 30.1 nM. Binder B2 has an EC50 of 21.9 nM. In the case of B3, the EC50 is reported as 39.1 nM. B4 gave an EC50 of 2.3 nM. For B5, the EC50 was 20.4 nM.

Target: T1, human CEACAM5
Experiment: FACS on MKN-45 cells expressing human CEACAM5
Remark: another data set of the same source
Procedure: as §1
Binder B6 has an EC50 of 1.92 µg/mL. Work on B7 yielded an EC50 of 7.51 µg/mL. For B8, the EC50 was 0.685 µg/mL. For B9, the EC50 was 1.62 µg/mL. Binder B10 has an EC50 of 1.53 µg/mL. In the case of B11, the EC50 is reported as 1.83 µg/mL. Work on B12 yielded an EC50 of 7.21 µg/mL. Work on B13 yielded an EC50 of 2.49 µg/mL. B14 showed an EC50 of 2.44 µg/mL. For B15, the EC50 was 25.1 µg/mL. In the case of B16, the EC50 is reported as 11.2 µg/mL. Work on B17 yielded an EC50 of 11.5 µg/mL.
